# B1: A24: murine monoclonal anti-human TfR antibody as disclosed in WO 2005/111082 (antibody, listed as Homo sapiens, V domains shown)
# VH: QIQLVQSGPELKKPGETVKISCKASGYTFTNQGMNWVKQAPGKGLKWMGWINTYTGEPINADDFKGRFAISLETSASTAYLQINNLKNEDMATYFCVREGWDSMDYWGQGTSVTVSS
# VL: QIVLTQSPAIMSASPGEKVTITCSASSSVNYMHWFQQKPGTSPKLWIYSTSNLASGVPARFSGSGSGTSYSLTISRMEAEDAATYYCQQRSSYPLTFGAGTKLELKR
# Legend:
# [1] = tested on: THP-1 cell line (CD71+); assay: Comparative binding on THP-1 cell line by flow cytometry; conditions: biotinylated antibodies, serial dilutions 5 to 0.05 ug/mL, streptavidin Alexa F488
# Method: (§1) Serial dilutions (5 to 0.05 ug/mL) of both biotinylated antibodies (antibody A24 and antibody of ADC INA01-SDV1) were performed and incubated on THP-1 and MEC-1 cell lines. The binding of the diluted antibodies was detected by Flow cytometry using streptavidin Alexa F488 (available at ThermoFisher scientific).
# [2] = tested on: MEC-1 cell line (CD71+); assay: Comparative binding on MEC-1 cell line by flow cytometry; conditions: biotinylated antibodies, serial dilutions 5 to 0.05 ug/mL, streptavidin Alexa F488
# Method: as §1
molecule,measurement,setting,value
B1,affinity to the CD71+ cell line (binding),[1],identical affinity
same,affinity to the CD71+ cell line (binding),[2],identical affinity

# From US12667625B2, “Antibody-drug conjucates and their uses for the treatment of cancer” (INATHERYS, priority 2018, dated 2026)
